Molecular target: GltPh-K55C-A364C cross-linked with mercury (Pyrococcus horikoshii) (UniProt O59010)
Assay: crystal structure; GltPh^in crystals grown at 4°C in 14–20% PEG 400, 0.1 M potassium citrate pH 5.0–6.0, with lipids and n-decyl-α-D-maltopyranoside; soaked in Tl+ or alkali-free solutions; trimer with three protomers

Question: For “GltPh-K55C-A364C cross-linked with mercury (from UniProt O59010 1-425) (natural protein)”, which stoichiometry N is on record?
Answer: 3

Reference: publication PMC4051121
